From FireProtDB (doi:10.1111/j.1432-1033.1992.tb17411.x) come the findings set out here.

B1: Cystatin-B wild type, P04080 (protein)
chain: MMCGAPSATQPATAETQHIADQVRSQLEEKENKKFPVFKAVSFKSQVVAGTNYFIKVHVGDEDFVHLRVFQSLPHENKPLTLSNYQTNKAKHDELTYF
B2: Cystatin-A wild type, P01040 (protein)
chain: MIPGGLSEAKPATPEIQEIVDKVKPQLEEKTNETYGKLEAVQYKTQVVAGTNYYIKVRAGDNKYMHLKVFKSLPGQNEDLVLTGYQVDKNKDDELTGF

For the first series the following is noted: Homo sapiens; pH 5; Thermal; DSC; Sodium acetate 0.02 M; NaCl 0.13 M; reversible: yes; whole UniProt chain shown.
B1: the Tm is 50.2 °C, the “unfolding enthalpy (calorimetric)” value came out at 70 kcal/mol and the “unfolding enthalpy (van 't Hoff)” value is 73 kcal/mol.

Regarding B2, the Tm worked out at 90.8 °C, the “unfolding enthalpy (calorimetric)” value was determined as 113 kcal/mol and the “unfolding enthalpy (van 't Hoff)” value is 129 kcal/mol.

The same series, now with this note: Homo sapiens; pH 6.5; Thermal; DSC; Sodium phosphate 0.01 M; NaCl 0.13 M; reversible: no; whole UniProt chain shown.
Turning to B1, the Tm was found to be 64.9 °C and the “unfolding enthalpy (calorimetric)” value was determined as 78 kcal/mol.

Staying with this series, now noted: Homo sapiens; pH 8.1; 10 °C; Thermal; DSC; HEPES 0.01 M; NaCl 0.13 M; reversible: yes; whole UniProt chain shown.
For B1, the unfolding free energy turned out to be 6 kcal/mol.

The same series, now with this note: Homo sapiens; pH 8.1; 25 °C; Thermal; DSC; HEPES 0.01 M; NaCl 0.13 M; reversible: yes; whole UniProt chain shown.
For the protein B1, the unfolding free energy stood at 5.9 kcal/mol.

The same series, now with this note: Homo sapiens; pH 8.1; 45 °C; Thermal; DSC; HEPES 0.01 M; NaCl 0.13 M; reversible: yes; whole UniProt chain shown.
As to B1, the unfolding free energy was found to be 3.99 kcal/mol.

The same series, now with this note: Homo sapiens; pH 8.1; 50 °C; Thermal; DSC; HEPES 0.01 M; NaCl 0.13 M; reversible: yes; whole UniProt chain shown.
As to B1, the unfolding free energy was determined as 3.2 kcal/mol.

The series is the same for the next values; noted with them: Homo sapiens; pH 8.1; Thermal; DSC; HEPES 0.01 M; NaCl 0.13 M; reversible: no; whole UniProt chain shown.
As for B1, the Tm worked out at 65.9 °C and the “unfolding enthalpy (calorimetric)” value was found to be 81 kcal/mol.

The same series, now with this note: Homo sapiens; pH 6.5; Thermal; DSC; Sodium phosphate 0.01 M; NaCl 0.13 M; reversible: yes; whole UniProt chain shown.
As for B2, the Tm turned out to be 94.5 °C, the “unfolding enthalpy (calorimetric)” value was found to be 116 kcal/mol and the “unfolding enthalpy (van 't Hoff)” value is 148 kcal/mol.

As a reminder, the Tm is the temperature at the midpoint of the melting transition.
